Data reported in doi:10.1101/2024.09.04.610228 (bioRxiv, 2024).
Ends that are not written are not given here.

Target: FOXO4 forkhead domain (FHD) (95-195) (UniProt P98177 95-195)
Experiment: fluorescence polarisation

Sequence of FOXO4 forkhead domain (FHD) (95-195) (P98177 95-195): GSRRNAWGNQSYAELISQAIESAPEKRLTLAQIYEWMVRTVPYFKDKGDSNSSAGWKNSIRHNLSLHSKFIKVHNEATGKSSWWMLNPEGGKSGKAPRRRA

Row | Binder | Kd [nM] | fold enhancement of inhibitory ability against p53 TAD PEP [fold]
1 | DLMLSPDDIEQWFTED (also: FITC label, position not given here) [FITC-labeled p53 TAD PEP (42-57)] | 110 | –
2 | ALMLSPAAIAQWFTAA [CAND] | – | ~3
